Laboratory results as given in article PMC3524239, “Brain Transcriptome-Wide Screen for HIV-1 Nef Protein Interaction Partners Reveals Various Membrane-Associated Proteins” (PLoS ONE, 2012).
Where no end group is shown, it is not given here. The star is where a group is joined. FITC = O=C1OC2(c3ccc(O)cc3Oc3cc(O)ccc32)c2ccc(NC(=S)*)cc21

Legend:
[1] = target: fluoresceinyl-labeled peptide of PLP1; test: other fluorescence titration; 0.5 µM fluoresceinyl-labeled peptide titrated with recombinant Nef(2-210); compared with a buffer control titration; fit of a simple bimolecular model with ligand depletion
[2] = target: T1, recombinant HIV-1 SF2 Nef(2-210) protein (HIV-1 isolate SF2, UniProt P03407 2-210); test: as above; conditions: both partners purified
T1 construct: Nef protein of HIV-1 isolate SF2, residues 2-210; also called purified Nef protein; source: recombinant, purified, prepared as described in [68]
T1 sequence (P03407 2-210): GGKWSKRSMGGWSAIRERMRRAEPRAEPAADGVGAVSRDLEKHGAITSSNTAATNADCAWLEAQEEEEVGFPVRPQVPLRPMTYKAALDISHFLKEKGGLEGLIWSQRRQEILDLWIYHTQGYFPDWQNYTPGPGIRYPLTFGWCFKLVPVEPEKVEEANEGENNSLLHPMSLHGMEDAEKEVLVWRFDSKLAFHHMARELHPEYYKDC

recombinant HIV-1 SF2 Nef(2-210) protein (from UniProt P03407 2-210) (natural protein), sequence (P03407 2-210): as above

| Molecule | Kd [1] | Kd [2] |
| --- | --- | --- |
| recombinant HIV-1 SF2 Nef(2-210) protein (from UniProt P03407 2-210) (natural protein) | 0.71 µM | – |
| {FITC}-TTSAVKELHGEFKTTA (peptide, UniProt Q13491-1 112-127, looked up, GPM6B cytoplasmic loop, residues 112-127; numbers count on: UniProtKB entry Q13491-1; also called FITC-labeled GPM6B peptide; source: synthetic peptide) [fluoresceinyl-labeled peptide GPM6B(112-127)] | – | 0.64 ± 0.06 µM |
